This is an account of results in paper PMC2836939.

What all share (assay): EMSA
In general terms: In EMSA bound probe runs differently from free probe, usually more slowly.

In data set [1] the target is T1, Dmp1 (Dmtf1) (UniProt Q8CE22 1-761).
T1 sequence: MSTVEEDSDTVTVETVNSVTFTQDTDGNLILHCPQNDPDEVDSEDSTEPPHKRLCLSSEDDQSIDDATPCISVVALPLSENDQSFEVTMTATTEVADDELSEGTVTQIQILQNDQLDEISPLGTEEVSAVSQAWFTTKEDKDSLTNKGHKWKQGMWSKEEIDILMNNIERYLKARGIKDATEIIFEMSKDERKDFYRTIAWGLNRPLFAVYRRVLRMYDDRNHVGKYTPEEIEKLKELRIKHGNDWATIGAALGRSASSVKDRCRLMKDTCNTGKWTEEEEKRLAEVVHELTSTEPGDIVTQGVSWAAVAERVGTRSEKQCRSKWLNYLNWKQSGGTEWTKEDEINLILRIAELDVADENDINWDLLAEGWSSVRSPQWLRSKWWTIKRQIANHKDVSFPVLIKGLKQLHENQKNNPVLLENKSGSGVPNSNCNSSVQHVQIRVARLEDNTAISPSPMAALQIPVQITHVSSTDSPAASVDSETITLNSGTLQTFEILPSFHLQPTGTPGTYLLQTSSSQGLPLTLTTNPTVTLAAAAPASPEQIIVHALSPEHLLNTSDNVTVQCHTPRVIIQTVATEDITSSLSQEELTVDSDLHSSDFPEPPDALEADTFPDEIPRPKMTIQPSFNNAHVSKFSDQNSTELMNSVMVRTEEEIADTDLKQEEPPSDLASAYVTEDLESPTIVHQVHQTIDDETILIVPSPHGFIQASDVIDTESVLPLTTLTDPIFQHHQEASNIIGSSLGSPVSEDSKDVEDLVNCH

The target in data set [2] is T1, Dmp1 (Dmtf1). This is another data set of the same source.
In data set [3] the target is T1, Dmp1 (Dmtf1). This is another data set of the same source.
In data set [4] the target is T1, Dmp1 (Dmtf1). This is another data set of the same source.
Data set [5] has as its target T1, Dmp1 (Dmtf1). This is another data set of the same source.

Where two headings read alike, the source gives them in different places.

B1: JunB#2 (control) (dsDNA)
DNA 1: TTTGAGCCCTGGGAGCCATCCGAGCGGCTTTCAACAGACC
DNA 2: GGTCTGTTGAAAGCCGCTCGGATGGCTCCCAGGGCTCAAA
B1: in data set [1], the binding result is “no binding”.

B2: Egr1#1 (dsDNA)
DNA 1: TTTAAAACGAAGGTGGAGGCGGATGGAGAGAGAGAGAGAGAG
DNA 2: CTCTCTCTCTCTCTCTCCATCCGCCTCCACCTTCGTTTTAAA
Turning to B2, the binding result in data set [2] was “binds”.

B3: Areg#1 (dsDNA)
DNA 1: TTTACCCCAGAACGGGATGGGGAGCAT
DNA 2: ATGCTCCCCATCCCGTTCTGGGGTAAA
Take B3: the binding result in data set [3] was “binds”.

B4: Areg#2 (dsDNA)
DNA 1: TTTGCTCAGGTGAGCATCCGCCACCTCTCAGG
DNA 2: CCTGAGAGGTGGCGGATGCTCACCTGAGCAAA
For the molecule B4, in data set [4], the binding result is “binds”.

B5: JunB#1 (dsDNA)
DNA 1: TTTTTTTCTTCCAAGCTGGGCGGATGGAGGGAGAAGATTG
DNA 2: CAATCTTCTCCCTCCATCCGCCCAGCTTGGAAGAAAAAAA
Turning to B5, the binding result in data set [1] is listed as “binds”.

B6: Tsp-1#1 (dsDNA)
DNA 1: TTTCAGAGCCTGCGTATGTTATAACG
DNA 2: CGTTATAACATACGCAGGCTCTGAAA
In the case of B6, the binding result in data set [5] is “binds”.
